Columns and labels:
[1] = target: biotin-EPR-CTF; assay: SPR; BIAcore S51; biotin-EGFR-ligand-CTFs immobilised (~1000 RU) on streptavidin chips; GST-ZnF5-8 0.03-1.0 µM injected at 30 µL/min for 2 min, 25°C; 10 mM HEPES pH 7.4, 150 mM NaCl, 0.005% Surfactant P20; KD = kd/ka
[2] = target: biotin-AR-CTF; assay: as above

Substance “recombinant GST-tagged ZnF5-8 of PLZF (domain or fragment)” has a Kd [1] of 146 nM, a koff [1] of 0.000806 s⁻¹ and a kon [1] of 5610 M⁻¹ s⁻¹. It also gave a Kd [2] of 76.5 nM, a koff [2] of 0.00144 s⁻¹ and a kon [2] of 18700 M⁻¹ s⁻¹.

— PMC3579940
